Reference: patent publication US20230220084A1
Several values for one entry are separate records, joined by “and”; a condition that tells them apart may be missing. Equal entries are not always repeated.

Legend:
[1] = biological target: human CLEC12A expressed on cells (human) (UniProt Q5QGZ9); assay: flow cytometry, hCLEC12A+Ba/F3 cells
[2] = biological target: hCLEC12A-His fusion protein (human) (UniProt Q5QGZ9); assay: SPR (Biacore) 37 C, mean of 4
[3] = biological target: hCLEC12A-His fusion protein (human) (UniProt Q5QGZ9); assay: SPR (Biacore) 37 C
[4] = biological target: hCLEC12A-His fusion protein (human) (UniProt Q5QGZ9); assay: SPR screening, semi-purified protein

hCLEC12A-His fusion protein (human), sequence (Q5QGZ9 65-265 limits assumed): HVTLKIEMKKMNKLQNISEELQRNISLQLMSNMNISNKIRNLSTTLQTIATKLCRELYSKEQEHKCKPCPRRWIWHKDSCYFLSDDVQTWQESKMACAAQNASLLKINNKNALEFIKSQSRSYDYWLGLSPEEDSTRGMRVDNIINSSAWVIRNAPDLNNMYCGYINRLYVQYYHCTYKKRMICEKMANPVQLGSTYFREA
human CLEC12A expressed on cells (human), sequence (Q5QGZ9 whole entry, the tested form may be a part): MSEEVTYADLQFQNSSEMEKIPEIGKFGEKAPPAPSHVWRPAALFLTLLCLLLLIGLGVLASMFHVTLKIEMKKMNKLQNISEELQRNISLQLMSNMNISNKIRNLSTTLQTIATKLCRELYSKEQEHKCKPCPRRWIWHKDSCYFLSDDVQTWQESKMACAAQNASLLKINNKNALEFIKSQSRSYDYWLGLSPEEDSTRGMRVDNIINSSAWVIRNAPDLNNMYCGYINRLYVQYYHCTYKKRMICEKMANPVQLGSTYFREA

- EC50 [1]: 26.1 nM
- Max MFI [1]: 48000 MFI
- Kd [2]: 1.43 nM
- koff [2]: 0.000594 s⁻¹
- kon [2]: 415000 M⁻¹ s⁻¹
- Kd [3]: 1.43 nM and 1.42 nM and 1.44 nM
- Kd [4]: 2.94 nM
- koff [4]: 0.00153 s⁻¹
- kon [4]: 520000 M⁻¹ s⁻¹
B1: F3′-1295 (bispecific antibody, part only; not given: Fc and unrelated binding arm, not shown: another chain or arm of the molecule; a dimerising Fc or GST)
scFv: QLQLQESGPGLVKPSETLSLTCTVSGFSLTNYGLHWIRQPPGKCLEWIGVIWSGGKTDYNPSLKSRVTISKDTSKNQFSLKLSSVQAADTAVYYCAKYDYDDSLDYWGQGTLVTVSSGGGGSGGGGSGGGGSGGGGSDIQMTQSPSSLSASVGDRVTITCHASQNINFWLSWYQQKPGKIPKLLIYEASNLHTGVPSRFSGSGSGTRFTLTISSLQPEDIATYYCQQSHSYPLTFGCGTKLEIK
